The sequences below were run on Escherichia coli TOP10 (assay: shrunken log2 fold change of peptide-encoding DNA abundance (4.5 h post-induction vs induction); higher = less antimicrobial activity (less host growth inhibition)). Settings: time post-induction: 4.5 h; library: site-saturation at positions 5, 18, 19, 20.
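Also: peptides expressed intracellularly from a pBAD plasmid library in pooled LB shake-flask culture, induced with 0.3% L-arabinose, DNA abundance read by NGS, three biological replicates, DESeq2 with apeglm shrinkage.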

| Sequence | shrunken log2 fold change |
| --- | --- |
| RRIRGRPPRLPRPRPRPRMPPRP | 0.605 |
| RRIRARPPRLPRPRPRPNYKPRP | -0.345 |
| RRIRTRPPRLPRPRPRPEMEPRP | 0.0702 |
| RRIRCRPPRLPRPRPRPWDAPRP | -0.758 |
| RRIRVRPPRLPRPRPRPSPFPRP | -0.442 |
| RRIRYRPPRLPRPRPRPVPSPRP | -0.404 |
| RRIRFRPPRLPRPRPRPMTMPRP | -0.132 |
| RRIRVRPPRLPRPRPRPYRHPRP | -1.08 |
| RRIRDRPPRLPRPRPRPSTIPRP | -0.295 |
| RRIRWRPPRLPRPRPRPLWPPRP | 0.275 |
| RRIRERPPRLPRPRPRPYHLPRP | -0.0102 |
| RRIRIRPPRLPRPRPRPTEGPRP | 0.00534 |
| RRIRIRPPRLPRPRPRPNHKPRP | -0.857 |
| RRIRDRPPRLPRPRPRPWHFPRP | -0.01 |
| RRIRTRPPRLPRPRPRPLAGPRP | 0.0232 |
| RRIRVRPPRLPRPRPRPAKDPRP | 0.00226 |
| RRIRIRPPRLPRPRPRPEIHPRP | -0.0126 |
| RRIRTRPPRLPRPRPRPDQEPRP | 0.105 |
| RRIRWRPPRLPRPRPRPDARPRP | -0.018 |
| RRIRLRPPRLPRPRPRPNAYPRP | 0.0618 |
| RRIRIRPPRLPRPRPRPLWCPRP | -0.067 |
| RRIRVRPPRLPRPRPRPNSEPRP | -0.43 |
| RRIRYRPPRLPRPRPRPFFPPRP | -0.682 |
| RRIRMRPPRLPRPRPRPIGHPRP | 0.0299 |
| RRIRFRPPRLPRPRPRPIHWPRP | -0.414 |

| Sequence | shrunken log2 fold change |
| --- | --- |
| RRIRYRPPRLPRPRPRPDQWPRP | -0.103 |
| RRIRKRPPRLPRPRPRPYCMPRP | -0.461 |
| RRIRDRPPRLPRPRPRPQNCPRP | 0.00875 |
| RRIRERPPRLPRPRPRPWWGPRP | -0.081 |
| RRIRFRPPRLPRPRPRPVFRPRP | -0.362 |
| RRIRYRPPRLPRPRPRPPYLPRP | -0.985 |
| RRIRARPPRLPRPRPRPTCYPRP | 0.128 |
| RRIRYRPPRLPRPRPRPQMKPRP | -1.17 |
| RRIRKRPPRLPRPRPRPIEYPRP | -0.156 |
| RRIRERPPRLPRPRPRPCIEPRP | -0.155 |
| RRIRGRPPRLPRPRPRPCCWPRP | 0.878 |
| RRIRARPPRLPRPRPRPSTQPRP | 0.265 |
| RRIRSRPPRLPRPRPRPDHHPRP | -0.868 |
| RRIRTRPPRLPRPRPRPVCQPRP | 2.97 |
| RRIRFRPPRLPRPRPRPAWQPRP | 2.26 |
| RRIRSRPPRLPRPRPRPDKHPRP | -0.402 |
| RRIRRRPPRLPRPRPRPKMSPRP | 0.274 |
| RRIRRRPPRLPRPRPRPSVHPRP | -0.278 |
| RRIRQRPPRLPRPRPRPVDMPRP | -0.108 |
| RRIRMRPPRLPRPRPRPIWMPRP | -0.101 |
| RRIRQRPPRLPRPRPRPVHRPRP | -0.0635 |
| RRIRFRPPRLPRPRPRPGMEPRP | 0.0216 |
| RRIRDRPPRLPRPRPRPPADPRP | 0.594 |
| RRIRPRPPRLPRPRPRPNTWPRP | 0.272 |
| RRIRERPPRLPRPRPRPYPLPRP | -0.192 |

| Sequence | shrunken log2 fold change |
| --- | --- |
| RRIRNRPPRLPRPRPRPEKAPRP | -0.0149 |
| RRIRSRPPRLPRPRPRPPCSPRP | 0.198 |
| RRIRIRPPRLPRPRPRPIGPPRP | 0.0815 |
| RRIRDRPPRLPRPRPRPNFNPRP | -0.307 |
| RRIRKRPPRLPRPRPRPFNDPRP | -0.135 |
| RRIRCRPPRLPRPRPRPTTHPRP | -0.0573 |
| RRIRWRPPRLPRPRPRPKPKPRP | -0.0893 |
| RRIRIRPPRLPRPRPRPFDTPRP | 0.0514 |
| RRIRVRPPRLPRPRPRPMVEPRP | 0.303 |
| RRIRRRPPRLPRPRPRPAWWPRP | 1.01 |
| RRIRLRPPRLPRPRPRPIKEPRP | -0.0262 |
| RRIRPRPPRLPRPRPRPFNYPRP | -0.269 |
| RRIRCRPPRLPRPRPRPCGMPRP | 0.119 |
| RRIRQRPPRLPRPRPRPTEWPRP | 0.446 |
| RRIRRRPPRLPRPRPRPPVLPRP | 0.18 |
| RRIRYRPPRLPRPRPRPNVTPRP | -0.573 |
| RRIRSRPPRLPRPRPRPMAQPRP | 0.112 |
| RRIRTRPPRLPRPRPRPSKAPRP | -0.0453 |
| RRIRHRPPRLPRPRPRPQSRPRP | -0.0223 |
| RRIRRRPPRLPRPRPRPDGFPRP | 0.14 |
| RRIRARPPRLPRPRPRPVVHPRP | 0.297 |
| RRIRARPPRLPRPRPRPQDMPRP | -0.322 |
| RRIRERPPRLPRPRPRPMSRPRP | -0.00149 |
| RRIRTRPPRLPRPRPRPPKRPRP | 0.302 |
| RRIRSRPPRLPRPRPRPYDAPRP | -0.557 |

| Sequence | shrunken log2 fold change |
| --- | --- |
| RRIRWRPPRLPRPRPRPGQLPRP | -0.0402 |
| RRIRSRPPRLPRPRPRPKIWPRP | 0.141 |
| RRIRYRPPRLPRPRPRPHSHPRP | -0.311 |
| RRIRARPPRLPRPRPRPLANPRP | 0.255 |
| RRIRQRPPRLPRPRPRPSGGPRP | 0.0203 |
| RRIRDRPPRLPRPRPRPGNRPRP | -0.0278 |
| RRIRARPPRLPRPRPRPEFVPRP | 1.05 |
| RRIRVRPPRLPRPRPRPRCRPRP | -0.0394 |
| RRIRPRPPRLPRPRPRPYKQPRP | -0.777 |
| RRIRIRPPRLPRPRPRPRVKPRP | -0.0816 |
| RRIRIRPPRLPRPRPRPGTKPRP | -0.0997 |
| RRIRKRPPRLPRPRPRPFMAPRP | 0.0398 |
| RRIRPRPPRLPRPRPRPKHKPRP | -0.0938 |
| RRIRKRPPRLPRPRPRPFGRPRP | -0.209 |
| RRIRARPPRLPRPRPRPNHYPRP | -0.456 |
| RRIRMRPPRLPRPRPRPTYVPRP | -0.197 |
| RRIRIRPPRLPRPRPRPPTYPRP | -0.427 |
| RRIRSRPPRLPRPRPRPQWFPRP | -0.241 |
| RRIRGRPPRLPRPRPRPMNGPRP | 0.00709 |
| RRIRHRPPRLPRPRPRPDDRPRP | -0.144 |
| RRIRPRPPRLPRPRPRPPCDPRP | 0.182 |
| RRIRYRPPRLPRPRPRPSHRPRP | -0.479 |
| RRIRYRPPRLPRPRPRPHLSPRP | -0.235 |
| RRIRRRPPRLPRPRPRPMCDPRP | 0.308 |
| RRIRWRPPRLPRPRPRPRIGPRP | 0.138 |

| Sequence | shrunken log2 fold change |
| --- | --- |
| RRIRGRPPRLPRPRPRPLNLPRP | -0.018 |
| RRIRERPPRLPRPRPRPVVVPRP | -0.112 |
| RRIRYRPPRLPRPRPRPDAIPRP | -0.224 |
| RRIRLRPPRLPRPRPRPNFQPRP | -0.0242 |
| RRIRARPPRLPRPRPRPMMQPRP | 0.185 |
| RRIRERPPRLPRPRPRPKEYPRP | -0.0204 |
| RRIRGRPPRLPRPRPRPRFAPRP | 0.99 |
| RRIRRRPPRLPRPRPRPIPLPRP | 0.194 |
| RRIRGRPPRLPRPRPRPWNRPRP | -0.0647 |
| RRIRHRPPRLPRPRPRPESVPRP | 0.0222 |
| RRIRKRPPRLPRPRPRPFICPRP | 0.0135 |
| RRIRGRPPRLPRPRPRPSRPPRP | 0.624 |
| RRIRWRPPRLPRPRPRPNNWPRP | -0.0483 |
| RRIRGRPPRLPRPRPRPQAQPRP | 1.02 |
| RRIRLRPPRLPRPRPRPFALPRP | 0.187 |
| RRIRRRPPRLPRPRPRPSTLPRP | -0.174 |
| RRIRIRPPRLPRPRPRPSPWPRP | -0.34 |
| RRIRHRPPRLPRPRPRPHLIPRP | -0.097 |
| RRIRWRPPRLPRPRPRPVIPPRP | -0.0775 |
| RRIRKRPPRLPRPRPRPWHSPRP | 0.0422 |
| RRIRERPPRLPRPRPRPQISPRP | -0.0116 |
| RRIRHRPPRLPRPRPRPQILPRP | -0.0081 |
| RRIRNRPPRLPRPRPRPGGLPRP | -0.13 |
| RRIRFRPPRLPRPRPRPFDDPRP | -0.488 |
| RRIRPRPPRLPRPRPRPYKTPRP | 0.001 |

| Sequence | shrunken log2 fold change |
| --- | --- |
| RRIRRRPPRLPRPRPRPEETPRP | 0.244 |
| RRIRSRPPRLPRPRPRPSVWPRP | 0.0903 |
| RRIRARPPRLPRPRPRPHCTPRP | 1.18 |
| RRIRERPPRLPRPRPRPCHFPRP | 0.161 |
| RRIRLRPPRLPRPRPRPWIRPRP | -0.0231 |
| RRIRTRPPRLPRPRPRPLSEPRP | -0.127 |
| RRIRARPPRLPRPRPRPSCCPRP | 0.207 |
| RRIRERPPRLPRPRPRPFFRPRP | -0.112 |
| RRIRTRPPRLPRPRPRPFEIPRP | 0.0711 |
| RRIRDRPPRLPRPRPRPFENPRP | 0.115 |
| RRIRGRPPRLPRPRPRPYLYPRP | -0.215 |
| RRIRMRPPRLPRPRPRPNAWPRP | 0.774 |
| RRIRTRPPRLPRPRPRPNFTPRP | -0.0395 |
| RRIRFRPPRLPRPRPRPVQDPRP | -0.209 |
| RRIRSRPPRLPRPRPRPWGVPRP | -0.412 |
| RRIRERPPRLPRPRPRPSIHPRP | -0.147 |
| RRIRLRPPRLPRPRPRPSETPRP | -0.0373 |
| RRIRDRPPRLPRPRPRPAYTPRP | -0.00595 |
| RRIRARPPRLPRPRPRPKNYPRP | -0.279 |
| RRIRGRPPRLPRPRPRPWGKPRP | -0.0896 |
| RRIRRRPPRLPRPRPRPVSVPRP | 0.308 |
| RRIRNRPPRLPRPRPRPYAKPRP | -0.257 |
| RRIRKRPPRLPRPRPRPQPVPRP | 0.095 |
| RRIRERPPRLPRPRPRPGFNPRP | 0.0108 |
| RRIRVRPPRLPRPRPRPDHVPRP | -0.0193 |
